Laboratory results published in patent publication US20090098076A1, “Method For the Production of a Keratin-Binding Effector Molecule” (BASF SE, priority 2005, published 2009).

Experiments:
[1] = target: human skin keratin (human); assay: quantitative skin binding test, loss relative to untreated skin after 10% strength SDS treatment
[2] = target: human skin keratin (human); assay: quantitative skin binding test (human keratinocytes in microtiter plates), anti-His antibody, TMB; settings: scale: absorption at 405 nm, standardized to the surface
[3] = test system: human keratinocytes; assay: Quantitative binding to skin (Example 15)
Procedure: (§1) In order to investigate the binding strength of the KBD-D (SEQ ID No.:168) to skin and hair compared to the KBD-B (SEQ ID No.:166), a quantitative test was carried out. In this test firstly hair was incubated with KBD-B or KBD-D and excess KBD-D or -D was washed off. An antibody-peroxidase conjugate was then coupled via the His/tag of the KBD-B or -D. Nonbound antibody-peroxidase conjugate was washed off again. The bound antibody-peroxidase conjugate can convert a colorless substrate (TMB) into a colored product, which was measured photometrically at 405 nm. The intensity of the absorption indicates the amount of bound KBD-B or -D.
The test for binding to skin was carried out with human keratinocytes in microtiter plates as follows. • 2× washing with PBS/0.05% Tween 20 • addition of 1 ml of 1% BSA in PBS and incubation for 1 h at room temperature, gentle swinging movements (900 rpm). • removal of the supernatant • addition of 100 μg of KBD in PBS with 0.03% Tween 20; incubation for 2 h at room temperature and gentle swinging movements (900 rpm). • removal of the supernatant • 3× washing with PBS/0.05% Tween 20 • incubation with 1 ml of monoclonal mouse anti-tag-His6 antibodies for 2-4 h at room temperature, gentle swinging movement (900 rpm) • 3× washing with PBS/0.05% Tween 20 • addition of peroxidase substrate (1 ml/Eppendorf vessels composition see below) reaction until a blue coloration (about 90 seconds). • reaction stopped with 100 μl of 2 M H2SO4. • the absorption was measured at 405 nm.
(§2) Peroxidase Substrate (Prepared Shortly Beforehand):
0.1 ml TMB solution (42 mM TMB in DMSO) +10 ml substrate buffer (0.1 M sodium acetate pH 4.9) +14.7 μl H2O2 3% strength

[4] = test system: hair (human); assay: Quantitative binding to hair (Example 15)
Procedure: as §1
In order to characterize the hair binding of the KBD-D compared to the KBD-B, the following binding assay was carried out:
5 mg of hair (human) were cut into sections 5 mm in length and transferred to Eppendorf vessels (protein low-bind). • addition of 1 ml of ethanol for degreasing • centrifugation, removal of ethanol and washing of the hair with H2O • centrifugation, removal of the supernatant • addition of the keratin-binding domains to be tested (coupled to tag—e.g. His6, HA etc.) in 1 ml of PBS/0.05% Tween 20; incubation for 2 h at room temperature with gentle swinging movements • centrifugation, removal of the supernatant • 3× washing with PBS/0.05% Tween 20 • incubation with 1 ml monoclonal mouse anti-tag-(His6 or HA) antibodies with peroxidase conjugate (1:2000 in PBS/0.05% Tween 20) [Monoclonal AntipolyHistidine Peroxidase Conjugate, produced in mouse, lyophilized powder, Sigma] for 2-4 h at room temperature, gentle swinging movement • 3× washing with PBS/0.05% Tween 20 • addition of peroxidase substrate (1 ml/Eppendorf vessel) • allow reaction to proceed until blue coloration (90 seconds). • stop the reaction with 100 μl of 2 M H2SO4.
The absorption was measured at 405 nm
as §2
0.1 ml TMB solution (42 mM TMB in DMSO) +10 ml substrate buffer (0.1 M sodium acetate pH 4.9) +14.7 μl H2O2 3% strength BSA=bovine serum albumin PBS=phosphate buffered salt solution Tween 20=polyoxyethylene sorbitan monolaureate, n about 20 TMB=3,5,3′,5′-tetramethylbenzidine

[5] = target: human skin keratin (human); assay: quantitative skin binding test (human keratinocytes in microtiter plates), anti-His antibody, TMB; after 10% strength SDS treatment; settings: scale: absorption at 405 nm, standardized to the surface
[6] = target: human hair keratin (human hair, cut into 5 mm sections) (human); assay: quantitative hair binding test, anti-polyHis peroxidase conjugate, TMB; settings: scale: absorption at 405 nm, standardized to the surface
[7] = test system: skin keratin; assay: Qualitative binding to skin (adhesive tape keratin layer, Examples 8 and 14); settings: transparent adhesive tape with human skin keratin layer; negative control buffer only
Procedure: A visual qualitative test was developed in order to examine whether KBD binds to skin.
Blocking solution: Western Blocking Reagent 1921673 Roche (10× solution) diluted in TBS.
TBS: 20 mM Tris; 150 mM NaCl pH 7.5
The first step is the transfer of the outer keratin layer of the skin to a stable support. For this purpose, a transparent adhesive tape is firmly applied to depilated human skin and removed again. The test can be carried out directly on the transparent adhesive strip, or the adhering keratin layer can be transferred to a glass slide through renewed adhesion.
A visual qualitative test was used in order to examine whether the KBD-D (SEQ ID No.: 168) binds to skin.
Blocking solution: Western Blocking Reagent 1921673 Roche (10× solution) diluted in TBS
A blue colored precipitate, being a reaction of the antipolyhistidine-AP conjugate interacting with the KBD-D, was visible on the transparent adhesive tape treated with KBD-D. As negative control, a transparent adhesive tape was treated only with buffer. No significant blue coloration could be seen here.

[8] = target: human hair keratin (human hair, cut into 5 mm sections) (human); assay: quantitative hair binding test, anti-polyHis peroxidase conjugate, TMB; after 10% strength SDS treatment; settings: scale: absorption at 405 nm, standardized to the surface
[9] = target: human hair keratin (human hair, cut into 5 mm sections) (human); assay: quantitative hair binding test, loss relative to untreated hair after 10% strength SDS treatment
[10] = values standardized to the surface, after 10% strength SDS treatment
[11] = values standardized to the surface, no SDS treatment

B1: KBD-D (keratin-binding domain of human plakophilin) with N-terminal histidine anchor (SEQ ID No.: 168) (protein)
chain: MRGSHHHHHHGSACELGTMNHSPLKTALAYECFQDQDNSTLALPSDQKMKTGTSGRQRVQEQVMMTVKRQKSKSSQSSTLSHSNRGSMYDGLADNYNYGTTSRSSYYSKFQAGNGSWGYPIYNGTLKREPDNRRFSSYSQMENWSRHYPRGSCNTTGAGSDICFMQKIKASRSEPDLYCDPRGTLRKGTLGSKGQKTTQNRYSFYSTCSGQKAIKKCPVRPPSCASKQDPVYIPPISCNKDLSFGHSRASSKICSEDIECSGLTIPKAVQYLSSQDEKYQAIGAYYIQHTCFQDESAKQQVYQLGGICKLVDLLRSPNQNVQQAAAGALRNLVFRSTTNKLETRRQNGIREAVSLLRRTGNAEIQKQLTGLLWNLSSTDELKEELIADALPVLADRVIIPFSGWCDGNSNMSREVVDPEVFFNATGCLRNLSSADAGRQTMRNYSGLIDSLMAYVQNCVAASRCDDKSVENCMCVLHNLSYRLDAEVPTRYRQLEYNARNAYTEKSSTGCFSNKSDKMMNNNYDCPLPEEETNPKGSGWLYHSDAIRTYLNLMGKSKKDATLEACAGALQNLTASKGLMSSGMSQLIGLKEKGLPQIARLLQSGNSDVVRSGASLLSNMSRHPLLHRVMGNQVFPEVTRLLTSHTGNTSNSEDILSSACYTVRNLMASQPQLAKQYFSSSMLNNIINLCRSSASPKAAEAARLLLSDMWSSKELQGVLRQQGFDRNMLGTLAGANSLRNFTSRF
Question: Which results are given for B1?
Answer: Relative absorption loss after 10% strength SDS treatment in % [1]: 15%; Absorption at 405 nm [2]: 3.69; Relative absorption loss after 10% strength SDS treatment in %, skin ([3]; relative to untreated skin): 15%; binding to skin compared with hair (in words) ([3]; summary of Tab. 10): more strongly to skin; Absorption at 405 nm, binding to skin after 10% strength SDS treatment [3, 10]: 3.15; Absorption at 405 nm, binding to skin [3, 11]: 3.69; influence of washing with SDS solution on binding ([3]; washing with an up to 10% strength SDS solution, in contrast to KBD-B): only more weakly influenced; Relative absorption loss after 10% strength SDS treatment in %, hair ([4]; relative to untreated hair): 30%; binding to hair (in words) ([4]; summary of Tab. 10): can bind to hair; Absorption at 405 nm, binding to hair after 10% strength SDS treatment [4, 10]: 0.62; Absorption at 405 nm, binding to hair [4, 11]: 0.88; Absorption at 405 nm [5]: 3.15; Absorption at 405 nm [6]: 0.88; binding to skin keratin (blue colored precipitate) [7]: has bound to the skin keratin; Absorption at 405 nm [8]: 0.62; Relative absorption loss after 10% strength SDS treatment in % [9]: 30%
